From US20030162277

Legend:
[1] = molecular target: T1, protein kinase C substrate peptide KKRFSFKKSFKLSGFSFK
T1 chain: KKRFSFKKSFKLSGFSFK

[2] = molecular target: T2, csk tyrosine kinase substrate peptide KKKKEEIYFFF
T2 chain: KKKKEEIYFFF

[3] = molecular target: T3, raf-1 kinase substrate peptide SGQLIDSMANSFVGTRS
T3 chain: SGQLIDSMANSFVGTRS

[4] = molecular target: T4, casein kinase I substrate peptide RRKDLHDDEEDEAMSITA
T4 chain: RRKDLHDDEEDEAMSITA

[5] = molecular target: T5, Ca-/calmodulin-dependent PK substrate peptide PLARTLSVAGLPGK
T5 chain: PLARTLSVAGLPGK

[6] = molecular target: T6, p34 cdc-kinase substrate peptide PKTPKKAKKL
T6 chain: PKTPKKAKKL

[7] = molecular target: T7, Ca-/calmodulin-dependent PK substrate peptide KKALRRQETVDAL
T7 chain: KKALRRQETVDAL

[8] = molecular target: T8, cGMP-dependent protein kinase substrate peptide RKISASEFDRPLR
T8 chain: RKISASEFDRPLR

[9] = molecular target: T9, cAMP-dependent protein kinase substrate peptide LRRASLG
T9 chain: LRRASLG

[10] = molecular target: T10, myosin light chain kinase substrate peptide KKRPQRATSNVFS
T10 chain: KKRPQRATSNVFS

[11] = molecular target: T11, insulin receptor tyrosine kinase substrate peptide KKKLPATGDYMNMSPVGD
T11 chain: KKKLPATGDYMNMSPVGD

[12] = molecular target: T12, p42/p44 MAP kinase substrate peptide APRTPGGRR
T12 chain: APRTPGGRR

[13] = molecular target: T13, c-src tyrosine kinase substrate peptide YIYGSFK
T13 chain: YIYGSFK

[14] = molecular target: T14, cdc2-kinase substrate peptide Ac-SPGRRRRK
T14 chain: SPGRRRRK

[15] = molecular target: T15, casein kinase II substrate peptide RRRDDDSDDD
T15 chain: RRRDDDSDDD

[16] = molecular target: T16, p42/p44 MAP kinase substrate peptide EAAEAEPAEPSSPAAEAEGA
T16 chain: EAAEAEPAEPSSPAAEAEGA

[17] = molecular target: T17, S6 kinase substrate peptide LSSLRASTSKSGGQK
T17 chain: LSSLRASTSKSGGQK

[18] = molecular target: T18, protein kinase C substrate peptide QKRPSQRSK
T18 chain: QKRPSQRSK

[19] = molecular target: T19, p42/p44 MAP kinase substrate peptide LMECRNSPVAKT
T19 chain: LMECRNSPVAKT

[20] = molecular target: T20, abl tyrosine kinase substrate peptide EAIYAAPFAKKK
T20 chain: EAIYAAPFAKKK

B1: Murine Lymph node Stromal cell Kinase 1 (MLSK-1) (protein)
chain: MESVALLQRPSQAPSASALASESARPLADGLIKSPKPLMKKQAVKRHHHKHNLRHRYEFLETLGKGTYGKVKKARESSGRLVAIKSIRKDKIKDEQDLLHIRREIEIMSSLNHPHIIAIHEVFENSSKIVIVMEYASRGDLYDYISERPRLSERDARHFFRQIVSALHYCHQNGIVHRDLKLENILLDANGNIKIADFGLSNLYHKGKFLQTFCGSPLYASPEIVNGKPYVGPEVDSWSLGVLLYILVHGTMPFDGQDHKTLVKQISNGAYREPPKPSDACGLIRWLLMVNPTRRATLEDVASHWWVNWGYTTGVGEQEALREGGHPSGDFGRASMADWLRRSSRPLLENGAKVCSFFKQHVPGGGSTVPGLERQHSLKKSRKENDMAQNLQGDPAEDTSSRPGKSSLKLPKGILKKKSSTSSGEVQEDPQELRPVPDTPGQPVPAVSLLPRKGILKKSRQRESGYYSSPEPSESGELLDASDVFVSGDPVEQKSPQASGLLLHRKGILKLNGKFSRTALEGTTPSTFGSLDQLASSHPAARPSRPSGAVSEDSILSSESFDQLDLPERLPETPLRGCVSVDNLRGLEQPPSEGLKRWWQESLGDSCFSLTDCQEVTAAYRQALGICSKLS
For B1, the Phosphorylation by MLSK-1 (% of max.) [1] was 100 % of max, the Phosphorylation by MLSK-1 (% of max.) [2] was 82.1 % of max and the Phosphorylation by MLSK-1 (% of max.) [3] was 43.1 % of max. The Phosphorylation by MLSK-1 (% of max.) [4] was 14.1 % of max, the Phosphorylation by MLSK-1 (% of max.) [5] was 10.3 % of max and the Phosphorylation by MLSK-1 (% of max.) [6] was 82 % of max. The Phosphorylation by MLSK-1 (% of max.) [7] was 20.9 % of max, the Phosphorylation by MLSK-1 (% of max.) [8] was 62.2 % of max and the Phosphorylation by MLSK-1 (% of max.) [9] was 65.9 % of max. For the same protein, the Phosphorylation by MLSK-1 (% of max.) [10] was 72 % of max, the Phosphorylation by MLSK-1 (% of max.) [11] was 33.7 % of max and the Phosphorylation by MLSK-1 (% of max.) [12] was 88.6 % of max. For the same protein, the Phosphorylation by MLSK-1 (% of max.) [13] was 66.6 % of max, the Phosphorylation by MLSK-1 (% of max.) [14] was 94.8 % of max and the Phosphorylation by MLSK-1 (% of max.) [15] was 17.6 % of max. The Phosphorylation by MLSK-1 (% of max.) [16] was 0 % of max, the Phosphorylation by MLSK-1 (% of max.) [17] was 66.6 % of max and the Phosphorylation by MLSK-1 (% of max.) [18] was 75 % of max. The Phosphorylation by MLSK-1 (% of max.) [19] was 3.8 % of max and the Phosphorylation by MLSK-1 (% of max.) [20] was 69.3 % of max.
